Measurements reported in IntAct's records for PubMed 12655004.

B1: U3 small nucleolar ribonucleoprotein protein IMP4 (Homo sapiens), Q96G21 (parent)
chain: MLRREARLRREYLYRKAREEAQRSAQERKERLRRALEENRLIPTELRREALALQGSLEFDDAGGEGVTSHVDDEYRWAGVEDPKVMITTSRDPSSRLKMFAKELKLVFPGAQRMNRGRHEVGALVRACKANGVTDLLVVHEHRGTPVGLIVSHLPFGPTAYFTLCNVVMRHDIPDLGTMSEAKPHLITHGFSSRLGKRVSDILRYLFPVPKDDSHRVITFANQDDYISFRHHVYKKTDHRNVELTEVGPRFELKLYMIRLGTLEQEATADVEWRWHPYTNTARKRVFLSTE
partner: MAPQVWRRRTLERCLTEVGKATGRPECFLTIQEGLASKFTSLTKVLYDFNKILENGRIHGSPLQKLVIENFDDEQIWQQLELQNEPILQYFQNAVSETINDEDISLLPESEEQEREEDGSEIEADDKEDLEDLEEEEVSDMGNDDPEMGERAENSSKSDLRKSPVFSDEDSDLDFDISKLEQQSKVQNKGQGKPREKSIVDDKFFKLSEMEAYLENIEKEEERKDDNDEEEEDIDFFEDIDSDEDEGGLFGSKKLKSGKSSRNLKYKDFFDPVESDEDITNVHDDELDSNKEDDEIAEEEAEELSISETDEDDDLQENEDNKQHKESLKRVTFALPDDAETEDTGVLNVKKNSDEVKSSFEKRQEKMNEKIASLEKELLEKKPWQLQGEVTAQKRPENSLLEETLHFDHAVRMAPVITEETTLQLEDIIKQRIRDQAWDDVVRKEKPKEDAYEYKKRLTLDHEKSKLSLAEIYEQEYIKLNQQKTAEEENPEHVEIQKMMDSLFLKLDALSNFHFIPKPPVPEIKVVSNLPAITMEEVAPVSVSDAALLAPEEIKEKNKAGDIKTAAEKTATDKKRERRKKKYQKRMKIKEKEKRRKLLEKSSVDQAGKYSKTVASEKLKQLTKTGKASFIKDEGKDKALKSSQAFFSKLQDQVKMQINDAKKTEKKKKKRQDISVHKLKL

Variants of: B1
Details: with mpp10_human MPHOSPH10, O00566

effect of a mutation on the interaction | Variant
disrupting interaction strength | MLRREARLRREYLYRKAREEAQRSAQERKERLRRALEENRLIPTELRREALALQGSLEFDDAGGEGVTSHVDDEYRWAGVEDPKVMITTSRDPSSRLKMFAKELKLVFPGAQRMNRGRHEVGALVRACKANGVTDLLVVHEHRGTPVGLIVSHLPFGPAAYATLCNVVMRHDIPDLGTMSEAKPHLITHGFSSRLGKRVSDILRYLFPVPKDDSHRVITFANQDDYISFRHHVYKKTDHRNVELTEVGPRFELKLYMIRLGTLEQEATADVEWRWHPYTNTARKRVFLSTE [T159A;F162A]
disrupting interaction strength | MLRREARLRREYLYRKAREEAQRSAQERKERLRRALEENRLIPTELRREALALQGSLEFDDAGGEGVTSHVDDEYRWAGVEDPKVMITTSRDPSSRLKMFAKELKLVFPGAQRMNRGRHEVGALVRACKANGVTDLLVVHEHRGTPVGLIVSHLPFGPTAYFTLCNVVMRHDIPDLGTMSEAKPHLITHGFSSRLGKRVSDILRYLFPVPKDDSHRVITFANQDDYISFRHHVYKKTDHRNVELTAVGPAFELKLYMIRLGTLEQEATADVEWRWHPYTNTARKRVFLSTE [E246A;R250A]
